# Results as given in IntAct's records for PubMed 19749176.
# B1: Serine/threonine-protein phosphatase PP1-1 (Saccharomyces cerevisiae), P20604 (parent)
# chain: MVSRGPDEWLETIKKCQALTENEMKQLCEMVKELLMEESNIQPVQTPVTVCGDIHGQFHDLLELFRTAGGFPDDINYIFLGDYVDRGYYSLETFTLLMCLKVKYPAKITLVRGNHESRQITQVYGFYEECLNKYGSTTVWKYCCQVFDFLTLAAIIDGKILCVHGGLSPEIRMLDQIRVLSRAQEVPHEGGFSDLLWSDPDNVEAWQVSPRGAGWLFGSKVAREFNHVNGLNLIARAHQLVMEGFKYHFPEKDVVTVWSAPNYCYRCGNVASVMKVDEDLEPTFKIFSAVPDDYIRESTANHNNQRAGYFL
# partner: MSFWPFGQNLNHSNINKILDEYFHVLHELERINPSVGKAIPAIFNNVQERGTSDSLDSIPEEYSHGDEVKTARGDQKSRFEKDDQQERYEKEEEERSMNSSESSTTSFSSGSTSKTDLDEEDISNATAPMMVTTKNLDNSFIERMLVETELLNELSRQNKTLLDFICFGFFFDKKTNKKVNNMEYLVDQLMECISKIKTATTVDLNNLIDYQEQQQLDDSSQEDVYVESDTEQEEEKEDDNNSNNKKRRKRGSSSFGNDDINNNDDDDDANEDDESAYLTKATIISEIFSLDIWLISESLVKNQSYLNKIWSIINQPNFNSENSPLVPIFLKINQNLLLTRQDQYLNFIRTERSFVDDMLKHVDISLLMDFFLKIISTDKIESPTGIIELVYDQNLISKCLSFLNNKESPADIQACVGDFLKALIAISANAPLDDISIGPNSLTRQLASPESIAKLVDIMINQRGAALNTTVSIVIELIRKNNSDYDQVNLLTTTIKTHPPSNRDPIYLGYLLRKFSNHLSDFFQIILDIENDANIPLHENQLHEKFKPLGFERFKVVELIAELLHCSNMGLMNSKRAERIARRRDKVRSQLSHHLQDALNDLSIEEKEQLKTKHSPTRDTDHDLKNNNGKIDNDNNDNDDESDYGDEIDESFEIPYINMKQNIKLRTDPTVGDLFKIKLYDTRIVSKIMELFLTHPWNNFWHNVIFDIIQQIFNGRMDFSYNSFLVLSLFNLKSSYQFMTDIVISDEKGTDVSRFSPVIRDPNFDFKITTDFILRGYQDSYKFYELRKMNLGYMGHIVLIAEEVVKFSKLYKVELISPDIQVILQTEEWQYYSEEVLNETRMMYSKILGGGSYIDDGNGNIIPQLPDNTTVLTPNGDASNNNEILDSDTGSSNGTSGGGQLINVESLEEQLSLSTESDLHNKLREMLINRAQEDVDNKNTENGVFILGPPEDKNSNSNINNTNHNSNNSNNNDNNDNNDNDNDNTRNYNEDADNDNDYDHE
# B2: Serine/threonine-protein phosphatase PP1-1 (Saccharomyces cerevisiae), P20604 (parent)
# chain: B1 chain
# partner: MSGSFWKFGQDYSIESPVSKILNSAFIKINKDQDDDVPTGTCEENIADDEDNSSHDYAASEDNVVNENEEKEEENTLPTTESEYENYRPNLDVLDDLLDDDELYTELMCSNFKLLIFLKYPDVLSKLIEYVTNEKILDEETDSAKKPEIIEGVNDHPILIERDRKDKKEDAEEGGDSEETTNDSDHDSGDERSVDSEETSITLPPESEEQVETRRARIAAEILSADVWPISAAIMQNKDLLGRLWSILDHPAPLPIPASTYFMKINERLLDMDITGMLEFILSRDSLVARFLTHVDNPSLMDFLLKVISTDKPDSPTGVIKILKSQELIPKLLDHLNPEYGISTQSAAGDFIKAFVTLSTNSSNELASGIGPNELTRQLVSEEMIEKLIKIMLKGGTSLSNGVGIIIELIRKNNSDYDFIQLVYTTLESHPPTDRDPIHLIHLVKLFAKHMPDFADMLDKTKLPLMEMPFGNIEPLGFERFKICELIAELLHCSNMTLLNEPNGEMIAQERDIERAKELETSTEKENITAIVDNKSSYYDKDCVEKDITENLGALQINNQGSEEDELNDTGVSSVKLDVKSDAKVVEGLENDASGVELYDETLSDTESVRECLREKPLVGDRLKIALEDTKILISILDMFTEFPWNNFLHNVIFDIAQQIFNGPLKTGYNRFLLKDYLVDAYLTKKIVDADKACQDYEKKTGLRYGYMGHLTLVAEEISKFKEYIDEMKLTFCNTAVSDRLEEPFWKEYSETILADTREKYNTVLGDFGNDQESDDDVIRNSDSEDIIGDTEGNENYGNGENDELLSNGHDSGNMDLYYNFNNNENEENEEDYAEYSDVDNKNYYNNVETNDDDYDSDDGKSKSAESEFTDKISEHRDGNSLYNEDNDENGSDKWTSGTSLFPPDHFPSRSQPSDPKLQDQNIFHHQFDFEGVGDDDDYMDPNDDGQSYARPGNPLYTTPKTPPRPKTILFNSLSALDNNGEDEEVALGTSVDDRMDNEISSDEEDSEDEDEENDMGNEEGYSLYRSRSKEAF
# Variants of: B1
# Conditions: with sa155_yeast SAP155, P43612
row,Variant,effect of a mutation on the interaction
1,E37A;E38A,decreasing interaction

# Variants of: B2
# Conditions: with sa190_yeast SAP190, P36123
row,Variant,effect of a mutation on the interaction
1,E37A;E38A,decreasing interaction
